Source: patent publication US20100173972A1, “METHODS AND USES RELATED TO RHBDL4” (MEDICAL RESEARCH COUNCIL, priority 2007, published 2010)

Key:
[1] = test system: TGFalpha release, HEK293T cells; test: Time course after PMA induction of HEK293T cells overexpressing pro-TGFalpha, with protease inhibitors; format: cell-based, human; settings: inhibitor 10 μM
Experimental: Cell culture and cell-based rhomboid cleavage assay. Cells were propagated in DMEM supplemented with 10% fetal calf serum. COS-7 cells were transfected in 35 mm wells with FuGENE 6 (Roche) as described (7). In brief, 250 ng plasmid encoding the substrate (as indicated in the description of the figures), 25 ng for the rhomboid tested, 50 ng for the GRP receptor and empty plasmid to bring the total DNA to 1 μg was used. For protease titration, 2.5 ng to 250 ng plasmid coding RHBDL4 was used. HeLa and HEK293T were transfected with polyethyleneimine (linear, MW 25000; Polysciences) as described (32) using twice the amount of DNA as used with FuGENE. Transfection efficiency was monitored by co-transfection of pEGFP (Invitrogen). Sixteen hours post transfection, medium was replaced with serum-free medium containing 10 μM BB94 (British Biotech) unless otherwise stated. For activation of endogenous rhomboid activity, phorbol 12-myristate 13-acetate (PMA) (1 μM, from Sigma) or bombesin (100 nM, from Sigma) was added to the cell medium. For inhibitor studies, the indicated protease inhibitors (from Calbiochem), diluted from a stock solution in DMSO, were compared with a carrier only. Medium was harvested typically after 24 to 30 hours; for inhibitor studies using 3,4-Dichloroisocoumarin (DCI) a time course with 0 minutes, 30 minutes and 4 hours was performed (FIG. 4C). Cells were solubilized in SDS-sample buffer and analyzed by SDS-PAGE. EndoH (New England Biolabs) and PNGaseF (New England Biolabs) treatment of SDS-solubilized cell extracts was performed according to the manufacturers instructions. Conditioned media were centrifuged for 10 minutes at full speed in a microfuge to remove cell debris, and subsequently proteins in the supernatant were precipitated by adding trichloroacetic acid (TCA) to 10%. The precipitate was recovered by centrifugation, washed with acetone and dissolved in SDS-PAGE sample buffer and analyzed by SDS-PAGE. Alternatively to TCA precipitation, TGFalpha-H8 in conditioned medium was captured by metal-chelate chromatography using Ni-NTA agarose beads (Qiagen) in the presence of 20 mM imidazole at pH 8.0. Subsequently beads were washed with 20 mM Tris-Cl pH 8.0, 50 mM imidazole, eluted with SDS-sample buffer and analyzed by SDS-PAGE and Western blotting (see below). Typically, from a 35 mm tissue culture dish, 10% of cell extracts and 20% of tissue culture supernatant were loaded. To increase the sensitivity, for experiments shown in FIGS. 1C, 3E, 4A and 4C, five times the amount of the media fractions were loaded.
Western blotting. Proteins were analyzed by 4-20% Tris-Glycine gradient gels (Invitrogen) followed by Western blot analysis using either anti FLAG M2-HRP (1:1000; Sigma), anti HA antibody 16B12 (1:1000; Covance), anti actin antibody ab8227 (1:5000; Abcam) or affinity purified polyclonal rabbit antibody anti RHBDL4 (1:4000; see above). In order to detect the 6 kDa form of TGFalpha, proteins were transferred on PVDF membrane with 0.2 μm pore size (Millipore) and probed with 1:100 anti TGFalpha antibody 134A-2B3 (Oncogene). For the detection of phosphorylated EGFR, PVDF membranes were blocked in 3% BSA in TBS-Tween supplemented with 200 μM NaVO3. Protein was detected with anti phospho-EGFR antibody 9H2 (1:2000, Upstate). […] Bound antibodies were detected by incubation with secondary antibody (Santa Cruz Biotechnology) followed by enhanced chemiluminescence (Amersham Biosciences).

Drosophila Spitz, Q01083 = biological target: T1, Drosophila Spitz, Q01083
T1 chain: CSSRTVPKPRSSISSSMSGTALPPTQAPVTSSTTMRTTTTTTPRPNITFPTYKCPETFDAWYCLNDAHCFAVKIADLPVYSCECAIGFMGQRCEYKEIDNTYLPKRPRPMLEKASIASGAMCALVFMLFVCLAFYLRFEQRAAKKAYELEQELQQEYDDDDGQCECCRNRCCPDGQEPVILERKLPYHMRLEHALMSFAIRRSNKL

[2] = biological target: human pro-TGFalpha, P01135
Chain of human pro-TGFalpha, P01135 (P01135 whole entry, looked up, the tested form may be a part): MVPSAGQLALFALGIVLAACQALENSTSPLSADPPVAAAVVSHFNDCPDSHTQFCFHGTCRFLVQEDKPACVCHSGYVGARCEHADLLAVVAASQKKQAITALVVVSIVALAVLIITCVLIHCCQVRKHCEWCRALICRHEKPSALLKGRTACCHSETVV

[3] = biological target: T2, in vitro translated substrate comprising the transmembrane domain of Drosophila Gurken, P42287
T2 chain: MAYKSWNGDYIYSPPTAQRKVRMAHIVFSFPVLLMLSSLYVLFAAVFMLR

Molecule: beta-secretase inhibitor IV
- Generation and release of the higher molecular weight form of TGFalpha [1]: none of these inhibitors of known proprotein convertases had an effect

B1: mouse RHBDL4 with an N-terminal HA3-tag (protein)
chain: MQRRTRGINTGLLLLLSQVFQIGINNIPPVTLATLAVNVWFFLNPWKPLYHSCISVEKCYQQKDWQRLLLSPLHHGDDWHLYFNMVSMLWKGVKLERRLGSRWFAYVIATFSLLTGVVYLLLQFTVAELLNQPDFKRNCAVGFSGVLFALKVLSNHYCPGGFVNILGFPVPNRFACWAELVAIHFCTPGTSFAGHLAGILVGLMYTQGPLKKIMDTCAGIFISHAGPSGQQNHFNNAGPSGYQNHYADGRPVTYDATYRNYDVYTAGLSEEEQLERALRASIWDRGNTRNGPMPYGFRLPPEEMRRQRLHRFDGQ
- cleavage (Drosophila Spitz, Q01083): Note that RHBDL4 cleaves Spitz
- cleavage of pro-TGFalpha, titration of protease plasmid (Western blot) [2]: cleavage of TGFalpha requires sub-stoichiometric amounts of RHBDL4

B2: recombinant mouse RHBDL4, C-terminally His6-tagged, from E. coli (protein)
chain: MQRRTRGINTGLLLLLSQVFQIGINNIPPVTLATLAVNVWFFLNPWKPLYHSCISVEKCYQQKDWQRLLLSPLHHGDDWHLYFNMVSMLWKGVKLERRLGSRWFAYVIATFSLLTGVVYLLLQFTVAELLNQPDFKRNCAVGFSGVLFALKVLSNHYCPGGFVNILGFPVPNRFACWAELVAIHFCTPGTSFAGHLAGILVGLMYTQGPLKKIMDTCAGIFISHAGPSGQQNHFNNAGPSGYQNHYADGRPVTYDATYRNYDVYTAGLSEEEQLERALRASIWDRGNTRNGPMPYGFRLPPEEMRRQRLHRFDGQ
- in vitro cleavage assay (SDS-PAGE, decrease of intact substrate band) [3]: The substrate was cleaved, as indicated by the decreased amount of intact substrate band

B3: recombinant mouse RHBDL1 from E. coli (protein)
chain: MDRSSLLQLIQEQQLDPENTGFIGADTFAGLVHSHELPLDPTKLDMLVALAQSNERGQVCYQELVDLISSKRSSSFKRAIANGQRALPRDGLLDEPGLSVYKRFVRYVAYEILPCEVDRRWYFYRHRTCPPPVFMASVTLAQIIVFLCYGARLNKWVLQTYHPEYMKSPLVYHPGHRARAWRFLTYMFMHVGLEQLGFNALLQLMIGVPLEMVHGVLRISLLYLAGVLAGSLTVSITDMRAPVVGGSGGVYALCSAHLANVVMNWAGMRCPYKLLRMVLALVCMSSEVGRAVWLRFSPPLPASGPQPSFMAHLAGAVVGVSMGLTILRSYEERLRDQCGWWVVLLAYGTFLLFAIFWNVFAYDLLGADIPPPP
- in vitro cleavage assay (SDS-PAGE, decrease of intact substrate band) [3]: The substrate was cleaved, as indicated by the decreased amount of intact substrate band

B4: mouse RHBDL1 with an N-terminal HA3-tag (protein)
chain: MDRSSLLQLIQEQQLDPENTGFIGADTFAGLVHSHELPLDPTKLDMLVALAQSNERGQVCYQELVDLISSKRSSSFKRAIANGQRALPRDGLLDEPGLSVYKRFVRYVAYEILPCEVDRRWYFYRHRTCPPPVFMASVTLAQIIVFLCYGARLNKWVLQTYHPEYMKSPLVYHPGHRARAWRFLTYMFMHVGLEQLGFNALLQLMIGVPLEMVHGVLRISLLYLAGVLAGSLTVSITDMRAPVVGGSGGVYALCSAHLANVVMNWAGMRCPYKLLRMVLALVCMSSEVGRAVWLRFSPPLPASGPQPSFMAHLAGAVVGVSMGLTILRSYEERLRDQCGWWVVLLAYGTFLLFAIFWNVFAYDLLGADIPPPP
- secreted 37 kDa product, FLAG6-tagged pro-TGFalpha (Western blot) [2]: overexpression of RHBDL1 caused a minor increase of secreted 37 kDa product

B5: recombinant human RHBDL2 from E. coli (protein)
chain: MAAVHDLEMESMNLNMGREMKEELEEEEKMREDGGGKDRAKSKKVHRIVSKWMLPEKSRGTYLERANCFPPPVFIISISLAELAVFIYYAVWKPQKQWITLDTGILESPFIYSPEKREEAWRFISYMLVHAGVQHILGNLCMQLVLGIPLEMVHKGLRVGLVYLAGVIAGSLASSIFDPLRYLVGASGGVYALMGGYFMNVLVNFQEMIPAFGIFRLLIIILIIVLDMGFALYRRFFVPEDGSPVSFAAHIAGGFAGMSIGYTVFSCFDKALLKDPRFWIAIAAYLACVLFAVFFNIFLSPAN
- in vitro cleavage assay (SDS-PAGE, decrease of intact substrate band) [3]: The substrate was cleaved, as indicated by the decreased amount of intact substrate band
